Drawing on PMC7954794, “Protein context shapes the specificity of SH3 domain-mediated interactions in vivo” (Nature Communications, 2021), this text covers screen value for ten variants.

B1: S. cerevisiae Abp1 (full length; SH3 domain 535-592 mutated) / Hua2 (parent)
chain 1: MALEPIDYTTHSREIDAEYLKIVRGSDPDTTWLIISPNAKKEYEPESTGSSFHDFLQLFDETKVQYGLARVSPPGSDVEKIIIIGWCPDSAPLKTRASFAANFAAVANNLFKGYHVQVTARDEDDLDENELLMKISNAAGARYSIQTSSKQQGKASTPPVKKSFTPSKSPAPVSKKEPVKTPSPAPAAKISSRVNDNNDDDDWNEPELKERDFDQAPLKPNQSSYKPIGKIDLQKVIAEEKAKEDPRLVQKPTAAGSKIDPSSDIANLKNESKLKRDSEFNSFLGTTKPPSMTESSLKNDDDKVIKGFRNEKSPAQLWAERKAKQNSGNAETKAEAPKPEVPEDEPEGEPDVKDLKSKFEGLAASEKEEEEMENKFAPPPKKSEPTIISPKPFSKPQEPVKAEEAEQPKTDYKKIGNPLPGMHIEADNEEEPEENDDDWDDDEDEAAQPPLPSRNVASGAPVQKEEPEQEEIAPSLPSRNSIPAPKQEEAPEQAPEEEIEEEAEEAAPQLPSRSSAAPPPPPRRATPEKKPKENPWATAEYDYDAAEDNELTFVENDKIINIEFVDDDWWLGELEKDGSKGLFPSNYVSLGN
chain 2: MQQTKFGKMYLDHDSVVEYSEDEIVEADRITLGYKKRLSMIENQMRHLLEDFSLDVQQIEPILADLQKYYDAFLQLLQKRNKSLQCKRSTHQPVPSPMNSQTSTNAKVNLSGKLMKFQLNSVQKFDEENILRILQNKIEFEHYFQIDKGKKQKVLLLAVYQCLNGPTRLHKVLNIEGIIHNNSIRTILGKQVSSSKWTVFLYDVKLVLLAHRQDVPNLETSKMIVRYGDLFPCALYFKDHTAY

The test covers variants of B1. The experiment in a line: DHFR protein-fragment complementation in yeast (Abp1-DHFR F[1,2] x partner-DHFR F[3]), deep mutational scanning, second methotrexate selection vs reference. As to conditions: with Hua2; S. cerevisiae, DHFR-PCA selection in liquid with methotrexate at 30 C, two 72 h selections (the score uses the second); reference = the pre-selection culture; not an affinity; value at the no-binding floor (a bound); scale: DMS score: mean over two replicates of log2(f_test/f_ref + 0.5)/ln 2, minus the synonymous-codon median.
As for chain 1 MALEPIDYTTHSREIDAEYLKIVRGSDPDTTWLIISPNAKKEYEPESTGSSFHDFLQLFDETKVQYGLARVSPPGSDVEKIIIIGWCPDSAPLKTRASFAANFAAVANNLFKGYHVQVTARDEDDLDENELLMKISNAAGARYSIQTSSKQQGKASTPPVKKSFTPSKSPAPVSKKEPVKTPSPAPAAKISSRVNDNNDDDDWNEPELKERDFDQAPLKPNQSSYKPIGKIDLQKVIAEEKAKEDPRLVQKPTAAGSKIDPSSDIANLKNESKLKRDSEFNSFLGTTKPPSMTESSLKNDDDKVIKGFRNEKSPAQLWAERKAKQNSGNAETKAEAPKPEVPEDEPEGEPDVKDLKSKFEGLAASEKEEEEMENKFAPPPKKSEPTIISPKPFSKPQEPVKAEEAEQPKTDYKKIGNPLPGMHIEADNEEEPEENDDDWDDDEDEAAQPPLPSRNVASGAPVQKEEPEQEEIAPSLPSRNSIPAPKQEEAPEQAPEEEIEEEAEEAAPQLPSRSSAAPPPPPRRATPEKKPKENPWATAEYDYDAAEDNELTGVENDKIINIEFVDDDWWLGELEKDGSKGLFPSNYVSLGN [chain 1 F553G], the screen value was -3.04. The value for chain 1 MALEPIDYTTHSREIDAEYLKIVRGSDPDTTWLIISPNAKKEYEPESTGSSFHDFLQLFDETKVQYGLARVSPPGSDVEKIIIIGWCPDSAPLKTRASFAANFAAVANNLFKGYHVQVTARDEDDLDENELLMKISNAAGARYSIQTSSKQQGKASTPPVKKSFTPSKSPAPVSKKEPVKTPSPAPAAKISSRVNDNNDDDDWNEPELKERDFDQAPLKPNQSSYKPIGKIDLQKVIAEEKAKEDPRLVQKPTAAGSKIDPSSDIANLKNESKLKRDSEFNSFLGTTKPPSMTESSLKNDDDKVIKGFRNEKSPAQLWAERKAKQNSGNAETKAEAPKPEVPEDEPEGEPDVKDLKSKFEGLAASEKEEEEMENKFAPPPKKSEPTIISPKPFSKPQEPVKAEEAEQPKTDYKKIGNPLPGMHIEADNEEEPEENDDDWDDDEDEAAQPPLPSRNVASGAPVQKEEPEQEEIAPSLPSRNSIPAPKQEEAPEQAPEEEIEEEAEEAAPQLPSRSSAAPPPPPRRATPEKKPKENPWATAEYDYDAAEDNELTNVENDKIINIEFVDDDWWLGELEKDGSKGLFPSNYVSLGN [chain 1 F553N] was less than -3.06; that for chain 1 MALEPIDYTTHSREIDAEYLKIVRGSDPDTTWLIISPNAKKEYEPESTGSSFHDFLQLFDETKVQYGLARVSPPGSDVEKIIIIGWCPDSAPLKTRASFAANFAAVANNLFKGYHVQVTARDEDDLDENELLMKISNAAGARYSIQTSSKQQGKASTPPVKKSFTPSKSPAPVSKKEPVKTPSPAPAAKISSRVNDNNDDDDWNEPELKERDFDQAPLKPNQSSYKPIGKIDLQKVIAEEKAKEDPRLVQKPTAAGSKIDPSSDIANLKNESKLKRDSEFNSFLGTTKPPSMTESSLKNDDDKVIKGFRNEKSPAQLWAERKAKQNSGNAETKAEAPKPEVPEDEPEGEPDVKDLKSKFEGLAASEKEEEEMENKFAPPPKKSEPTIISPKPFSKPQEPVKAEEAEQPKTDYKKIGNPLPGMHIEADNEEEPEENDDDWDDDEDEAAQPPLPSRNVASGAPVQKEEPEQEEIAPSLPSRNSIPAPKQEEAPEQAPEEEIEEEAEEAAPQLPSRSSAAPPPPPRRATPEKKPKENPWATAEYDYDAAEDNELTHVENDKIINIEFVDDDWWLGELEKDGSKGLFPSNYVSLGN [chain 1 F553H] was less than -3.06. The value for chain 1 MALEPIDYTTHSREIDAEYLKIVRGSDPDTTWLIISPNAKKEYEPESTGSSFHDFLQLFDETKVQYGLARVSPPGSDVEKIIIIGWCPDSAPLKTRASFAANFAAVANNLFKGYHVQVTARDEDDLDENELLMKISNAAGARYSIQTSSKQQGKASTPPVKKSFTPSKSPAPVSKKEPVKTPSPAPAAKISSRVNDNNDDDDWNEPELKERDFDQAPLKPNQSSYKPIGKIDLQKVIAEEKAKEDPRLVQKPTAAGSKIDPSSDIANLKNESKLKRDSEFNSFLGTTKPPSMTESSLKNDDDKVIKGFRNEKSPAQLWAERKAKQNSGNAETKAEAPKPEVPEDEPEGEPDVKDLKSKFEGLAASEKEEEEMENKFAPPPKKSEPTIISPKPFSKPQEPVKAEEAEQPKTDYKKIGNPLPGMHIEADNEEEPEENDDDWDDDEDEAAQPPLPSRNVASGAPVQKEEPEQEEIAPSLPSRNSIPAPKQEEAPEQAPEEEIEEEAEEAAPQLPSRSSAAPPPPPRRATPEKKPKENPWATAEYDYDAAEDNELTQVENDKIINIEFVDDDWWLGELEKDGSKGLFPSNYVSLGN [chain 1 F553Q] was less than -3.06; that for chain 1 MALEPIDYTTHSREIDAEYLKIVRGSDPDTTWLIISPNAKKEYEPESTGSSFHDFLQLFDETKVQYGLARVSPPGSDVEKIIIIGWCPDSAPLKTRASFAANFAAVANNLFKGYHVQVTARDEDDLDENELLMKISNAAGARYSIQTSSKQQGKASTPPVKKSFTPSKSPAPVSKKEPVKTPSPAPAAKISSRVNDNNDDDDWNEPELKERDFDQAPLKPNQSSYKPIGKIDLQKVIAEEKAKEDPRLVQKPTAAGSKIDPSSDIANLKNESKLKRDSEFNSFLGTTKPPSMTESSLKNDDDKVIKGFRNEKSPAQLWAERKAKQNSGNAETKAEAPKPEVPEDEPEGEPDVKDLKSKFEGLAASEKEEEEMENKFAPPPKKSEPTIISPKPFSKPQEPVKAEEAEQPKTDYKKIGNPLPGMHIEADNEEEPEENDDDWDDDEDEAAQPPLPSRNVASGAPVQKEEPEQEEIAPSLPSRNSIPAPKQEEAPEQAPEEEIEEEAEEAAPQLPSRSSAAPPPPPRRATPEKKPKENPWATAEYDYDAAEDNELTTVENDKIINIEFVDDDWWLGELEKDGSKGLFPSNYVSLGN [chain 1 F553T] was -3.01. The value for chain 1 MALEPIDYTTHSREIDAEYLKIVRGSDPDTTWLIISPNAKKEYEPESTGSSFHDFLQLFDETKVQYGLARVSPPGSDVEKIIIIGWCPDSAPLKTRASFAANFAAVANNLFKGYHVQVTARDEDDLDENELLMKISNAAGARYSIQTSSKQQGKASTPPVKKSFTPSKSPAPVSKKEPVKTPSPAPAAKISSRVNDNNDDDDWNEPELKERDFDQAPLKPNQSSYKPIGKIDLQKVIAEEKAKEDPRLVQKPTAAGSKIDPSSDIANLKNESKLKRDSEFNSFLGTTKPPSMTESSLKNDDDKVIKGFRNEKSPAQLWAERKAKQNSGNAETKAEAPKPEVPEDEPEGEPDVKDLKSKFEGLAASEKEEEEMENKFAPPPKKSEPTIISPKPFSKPQEPVKAEEAEQPKTDYKKIGNPLPGMHIEADNEEEPEENDDDWDDDEDEAAQPPLPSRNVASGAPVQKEEPEQEEIAPSLPSRNSIPAPKQEEAPEQAPEEEIEEEAEEAAPQLPSRSSAAPPPPPRRATPEKKPKENPWATAEYDYDAAEDNELTWVENDKIINIEFVDDDWWLGELEKDGSKGLFPSNYVSLGN [chain 1 F553W] was less than -3.06; that for chain 1 MALEPIDYTTHSREIDAEYLKIVRGSDPDTTWLIISPNAKKEYEPESTGSSFHDFLQLFDETKVQYGLARVSPPGSDVEKIIIIGWCPDSAPLKTRASFAANFAAVANNLFKGYHVQVTARDEDDLDENELLMKISNAAGARYSIQTSSKQQGKASTPPVKKSFTPSKSPAPVSKKEPVKTPSPAPAAKISSRVNDNNDDDDWNEPELKERDFDQAPLKPNQSSYKPIGKIDLQKVIAEEKAKEDPRLVQKPTAAGSKIDPSSDIANLKNESKLKRDSEFNSFLGTTKPPSMTESSLKNDDDKVIKGFRNEKSPAQLWAERKAKQNSGNAETKAEAPKPEVPEDEPEGEPDVKDLKSKFEGLAASEKEEEEMENKFAPPPKKSEPTIISPKPFSKPQEPVKAEEAEQPKTDYKKIGNPLPGMHIEADNEEEPEENDDDWDDDEDEAAQPPLPSRNVASGAPVQKEEPEQEEIAPSLPSRNSIPAPKQEEAPEQAPEEEIEEEAEEAAPQLPSRSSAAPPPPPRRATPEKKPKENPWATAEYDYDAAEDNELTRVENDKIINIEFVDDDWWLGELEKDGSKGLFPSNYVSLGN [chain 1 F553R] was less than -3.06. As for chain 1 MALEPIDYTTHSREIDAEYLKIVRGSDPDTTWLIISPNAKKEYEPESTGSSFHDFLQLFDETKVQYGLARVSPPGSDVEKIIIIGWCPDSAPLKTRASFAANFAAVANNLFKGYHVQVTARDEDDLDENELLMKISNAAGARYSIQTSSKQQGKASTPPVKKSFTPSKSPAPVSKKEPVKTPSPAPAAKISSRVNDNNDDDDWNEPELKERDFDQAPLKPNQSSYKPIGKIDLQKVIAEEKAKEDPRLVQKPTAAGSKIDPSSDIANLKNESKLKRDSEFNSFLGTTKPPSMTESSLKNDDDKVIKGFRNEKSPAQLWAERKAKQNSGNAETKAEAPKPEVPEDEPEGEPDVKDLKSKFEGLAASEKEEEEMENKFAPPPKKSEPTIISPKPFSKPQEPVKAEEAEQPKTDYKKIGNPLPGMHIEADNEEEPEENDDDWDDDEDEAAQPPLPSRNVASGAPVQKEEPEQEEIAPSLPSRNSIPAPKQEEAPEQAPEEEIEEEAEEAAPQLPSRSSAAPPPPPRRATPEKKPKENPWATAEYDYDAAEDNELTKVENDKIINIEFVDDDWWLGELEKDGSKGLFPSNYVSLGN [chain 1 F553K], the screen value was less than -3.06. As for chain 1 MALEPIDYTTHSREIDAEYLKIVRGSDPDTTWLIISPNAKKEYEPESTGSSFHDFLQLFDETKVQYGLARVSPPGSDVEKIIIIGWCPDSAPLKTRASFAANFAAVANNLFKGYHVQVTARDEDDLDENELLMKISNAAGARYSIQTSSKQQGKASTPPVKKSFTPSKSPAPVSKKEPVKTPSPAPAAKISSRVNDNNDDDDWNEPELKERDFDQAPLKPNQSSYKPIGKIDLQKVIAEEKAKEDPRLVQKPTAAGSKIDPSSDIANLKNESKLKRDSEFNSFLGTTKPPSMTESSLKNDDDKVIKGFRNEKSPAQLWAERKAKQNSGNAETKAEAPKPEVPEDEPEGEPDVKDLKSKFEGLAASEKEEEEMENKFAPPPKKSEPTIISPKPFSKPQEPVKAEEAEQPKTDYKKIGNPLPGMHIEADNEEEPEENDDDWDDDEDEAAQPPLPSRNVASGAPVQKEEPEQEEIAPSLPSRNSIPAPKQEEAPEQAPEEEIEEEAEEAAPQLPSRSSAAPPPPPRRATPEKKPKENPWATAEYDYDAAEDNELTPVENDKIINIEFVDDDWWLGELEKDGSKGLFPSNYVSLGN [chain 1 F553P], the screen value was less than -3.06. Turning to chain 1 MALEPIDYTTHSREIDAEYLKIVRGSDPDTTWLIISPNAKKEYEPESTGSSFHDFLQLFDETKVQYGLARVSPPGSDVEKIIIIGWCPDSAPLKTRASFAANFAAVANNLFKGYHVQVTARDEDDLDENELLMKISNAAGARYSIQTSSKQQGKASTPPVKKSFTPSKSPAPVSKKEPVKTPSPAPAAKISSRVNDNNDDDDWNEPELKERDFDQAPLKPNQSSYKPIGKIDLQKVIAEEKAKEDPRLVQKPTAAGSKIDPSSDIANLKNESKLKRDSEFNSFLGTTKPPSMTESSLKNDDDKVIKGFRNEKSPAQLWAERKAKQNSGNAETKAEAPKPEVPEDEPEGEPDVKDLKSKFEGLAASEKEEEEMENKFAPPPKKSEPTIISPKPFSKPQEPVKAEEAEQPKTDYKKIGNPLPGMHIEADNEEEPEENDDDWDDDEDEAAQPPLPSRNVASGAPVQKEEPEQEEIAPSLPSRNSIPAPKQEEAPEQAPEEEIEEEAEEAAPQLPSRSSAAPPPPPRRATPEKKPKENPWATAEYDYDAAEDNELTFVENDKIINIEFVDDDWWLGELEKDGSKGLAPSNYVSLGN [chain 1 F583A], the screen value is less than -3.06.
